{"source": "patent US20120219565A1", "about": "(Merck Sharp & Dohme, published 2012)", "binders": {"B1": {"name": "Parental rat antibody 23B12 (antibody, from a related filing, V domains shown)", "VH": "EEKLQQSGDDLVRPGAAVKMSCKASGYIFTDYAMHWVKQRPGQGLEWIGTFIPLLDTSDYNQNFKGRATLTADKSSNTAYMELSRLTSEDSAVYYCARMGVTHSYVMDAWGQGASVTVSS", "VL": "DIVLTQSPATLSVTPGESVSLSCRASQPISISVHWFQQKSNESPRLLIKFASQSISGIPSRFSGSGSGTDFTLNINRVESEDFSVYYCQQTFSLPYTFGTGTKLELKR"}, "B2": {"name": "Humanized anti hu TSLP mAb 23B12 (comprising the heavy chain of SEQ ID NO:11 and the light chain of SEQ ID NO:12 of the instant application) (antibody, human IgG1, kappa, V domains shown)", "VH": "QVQLVQSGAEVKKPGASVKVSCKASGYIFTDYAMHWVRQAPGQGLEWMGTFIPLLDTSDYAQKFQGRVTMTADTSTSTAYMELRSLRSDDTAVYYCARMGVTHSYVMDAWGQGTLVTVSS", "VL": "EIVLTQSPGTLSLSPGERATLSCRASQPISISVHWYQQKPGQAPRLLIYFASQSISGIPDRFSGSGSGTDFTLTISRLEPEDFAVYYCQQTFSLPYTFGQGTKVEIKR", "notes": "Vector deposited as ATCC PTA-10482; also called Antibody 4"}}, "key": {"[1]": {"biological_target": "Cynomolgus monkey TSLP (expressed in HEK293 cells) (cynomolgus monkey)", "assay": "cell-based or functional assay"}, "[2]": {"biological_target": "Human TSLP purchased from R&D and expressed in E. coli (human) (UniProt Q969D9)", "assay": "cell-based or functional assay"}, "[3]": {"biological_target": "Recombinant human TSLP (expressed in HEK293 cells) (human) (UniProt Q969D9)", "assay": "cell-based or functional assay"}, "[4]": {"biological_target": "Cynomolgus monkey TSLP (expressed in HEK293 cells) (cynomolgus monkey)", "assay": "SPR, BIAcore T100, TSLP immobilised on CM5, antibody injected, bivalent analyte model, room temperature"}, "[5]": {"biological_target": "Recombinant human TSLP (expressed in HEK293 cells) (human) (UniProt Q969D9)", "assay": "SPR, BIAcore T100, TSLP immobilised on CM5, antibody injected, bivalent analyte model, room temperature"}, "[6]": {"biological_target": "Recombinant human TSLP (expressed in HEK293 cells) (human) (UniProt Q969D9)", "assay": "KinExA 3000, solution equilibrium, 25 °C, particles coated with biotinylated human TSLP"}, "[7]": {"biological_target": "T1, Cynomolgus monkey TSLP (expressed in HEK293 cells) (cynomolgus monkey, UniProt A0A7N9CAT7 29-159)", "T1 construct": "also called cyno TSLP; cTSLP", "assay": "SPR, BIAcore T100, TSLP immobilised on CM5, antibody injected, bivalent analyte model, 37 °C"}, "[8]": {"biological_target": "T1, Cynomolgus monkey TSLP (expressed in …)", "assay": "cell-based or functional assay"}, "[9]": {"biological_target": "T2, Human TSLP purchased from R&D and expressed in E. coli (human, UniProt Q969D9 29-159)", "assay": "cell-based or functional assay"}, "[10]": {"biological_target": "T3, Recombinant human TSLP (expressed in HEK293 cells) (human, UniProt Q969D9 29-159)", "assay": "cell-based or functional assay"}, "[11]": {"biological_target": "T2, Human TSLP purchased from R&D and …", "assay": "SPR, BIAcore T100, R&D E. coli TSLP immobilised on CM5, antibody injected, bivalent analyte model, 37 °C"}, "[12]": {"biological_target": "T3, Recombinant human TSLP (expressed in …)", "assay": "KinExA 3000, solution equilibrium, 25 °C, particles coated with biotinylated human TSLP"}, "[13]": {"biological_target": "T2, Human TSLP purchased from R&D and …", "assay": "SPR, BIAcore T100, R&D E. coli TSLP immobilised on CM5, antibody injected, bivalent analyte model, room temperature"}, "[14]": {"biological_target": "T1, Cynomolgus monkey TSLP (expressed in …)", "assay": "SPR, BIAcore T100, TSLP immobilised on CM5, antibody injected, bivalent analyte model, room temperature"}}, "note": "Where “and” joins values, the source holds several entries; their conditions need not be identical. Equal values may be shown once.", "data": [{"binder": "B1", "values": [{"measurement": "EC 50, inhibition of TSLP-induced proliferation of Ba/F3-TSLPR-IL7Ra cells", "setting": "[1]", "result": "0.064 µg/mL and 0.122 µg/mL and 0.054 µg/mL"}, {"measurement": "EC 50, inhibition of TSLP-induced proliferation of Ba/F3-TSLPR-IL7Ra cells", "setting": "[2]", "result": 0.083, "unit": "µg/mL"}, {"measurement": "EC 50, inhibition of TSLP-induced proliferation of Ba/F3-TSLPR-IL7Ra cells", "setting": "[3]", "result": "0.022 µg/mL and 0.025 µg/mL and 0.014 µg/mL"}, {"measurement": "Kd", "setting": "[4]", "result": 0.159, "unit": "nM"}, {"measurement": "Kd", "setting": "[5]", "result": "0.141 nM and 0.13 nM"}, {"measurement": "Kd", "setting": "[6]", "result": 0.0011, "unit": "nM"}]}, {"binder": "B2", "values": [{"measurement": "Kd", "setting": "[7]", "result": 0.381, "unit": "nM"}, {"measurement": "EC 50, inhibition of TSLP-induced proliferation of Ba/F3-TSLPR-IL7Ra cells", "setting": "[8]", "result": "0.117 µg/mL and 0.077 µg/mL and 0.158 µg/mL and 0.067 µg/mL"}, {"measurement": "EC 50, inhibition of TSLP-induced proliferation of Ba/F3-TSLPR-IL7Ra cells", "setting": "[9]", "result": "0.137 µg/mL and 0.215 µg/mL"}, {"measurement": "EC 50, inhibition of TSLP-induced proliferation of Ba/F3-TSLPR-IL7Ra cells", "setting": "[10]", "result": "0.041 µg/mL and 0.024 µg/mL"}, {"measurement": "Kd", "setting": "[11]", "result": 0.299, "unit": "nM"}, {"measurement": "Kd", "setting": "[12]", "result": 0.0032, "unit": "nM"}, {"measurement": "Kd", "setting": "[13]", "result": 0.339, "unit": "nM"}, {"measurement": "Kd", "setting": "[14]", "result": "0.138 nM and 0.08 nM and 0.115 nM and 0.127 nM"}]}]}
